Measurements reported in US8697062B2, “Compositions and methods for ribonuclease-based therapeutics” (Quintessence Biosciences, Inc., priority 2007, dated 2014).
Changes are numbered by the printed parent chain. In names and notes the source's numbering stands.

Experiments:
[1] = system: A549 lung carcinoma cells; assay: xenograft model of non-small cell lung cancer (A549) in nude mice; assay type: in vivo; conditions: FIG. 9
Method: Cells from a non-small cell lung cancer cell line (A549) were grown in nine T175 flasks in F12K media and 10% fetal calf serum until the cells were confluent. 4.5×10^6 cells ([…]) were injected into the right rear flank of 4-5 week old male homozygous (nu/nu) nude mice (Harlan, Madison Wis.). Tumors were allowed to grow to an average size of ≧75 mm^3 before treatments were initiated. Animals of each tumor type, with the properly-sized tumors, were divided into treatment groups, including one set of animals treated weekly with vehicle (phosphate buffered saline, PBS). The vehicle and the test agents were all administered by intraperitoneal injection. Each animal was weighed twice a week during treatment. The tumors were measured twice weekly using calipers. Tumor volume (mm^3) was determined by using the formula for an ellipsoid sphere:
[formula] The percent tumor growth inhibition was calculated using the formula:
[formula] […] The efficacy is similar to that of an approved cancer drug, cisplatin.

[2] = system: DU145 human prostate cancer cells; assay: xenograft model of prostate cancer (DU145) in nude mice; assay type: in vivo
Method: Prostate cancer cells (DU145) were implanted into the right rear flank of 5-6 week old male homozygous (nu/nu) nude mice (Harlan). Tumors were allowed to grow to an average size of ≧75 mm^3 before treatments were initiated. Animals of each tumor type, with the properly-sized tumors, were divided into treatment groups. All the test compounds were diluted in PBS (drug vehicle), and one set of animals treated with vehicle (PBS) on the schedule with greatest frequency in the current study served as the negative control. All RNase treatments in the xenograft model are administered by intraperitoneal injection. Treatment with all agents is ongoing throughout the entire experiment (e.g., a 6 week long experiment with 1×wk dosing results in 6 total doses). Tumors were measured twice weekly using calipers. Tumor volume (mm^3) was determined by using the equation 4. The percent tumor growth inhibition was calculated using equation 5.

human RI = target: T1, human RI (Homo sapiens, UniProt P13489); assay: Kd^c | nM
T1 sequence (P13489 whole entry, looked up): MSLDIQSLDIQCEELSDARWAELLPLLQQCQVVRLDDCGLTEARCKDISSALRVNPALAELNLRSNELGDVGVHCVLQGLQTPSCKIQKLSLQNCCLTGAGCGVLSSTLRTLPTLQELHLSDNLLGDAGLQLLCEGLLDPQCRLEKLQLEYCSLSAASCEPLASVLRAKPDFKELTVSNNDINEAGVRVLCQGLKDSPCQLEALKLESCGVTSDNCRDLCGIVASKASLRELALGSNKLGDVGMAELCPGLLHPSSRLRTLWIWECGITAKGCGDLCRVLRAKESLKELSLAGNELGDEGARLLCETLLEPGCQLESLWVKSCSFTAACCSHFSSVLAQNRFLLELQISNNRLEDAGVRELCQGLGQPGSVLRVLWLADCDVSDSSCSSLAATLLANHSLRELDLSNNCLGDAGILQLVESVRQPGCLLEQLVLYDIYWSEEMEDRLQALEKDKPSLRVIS
Method: Table printed on a drawing sheet, FIGURE 2
Head of the field: Kd^c | nM
Footnotes: ^aValues of Tm (± 2 °C) were determined in PBS by UV spectroscopy. The Tm values for G88R RNase and ONC in PBS are from Leland et al. (1998, Proc. Natl. Acad. Sci. 98:10407-10412). / ^bValues of kcat/KM (± SE) are for the catalysis of 6-FAM~dArU(dA)2~6-TAMRA cleavage at room temperature in 0.10 M MES-NaOH buffer (pH 6.0) containing NaCl (0.10 M) except for the kcat/KM (± SE) of ONC . The kcat/KM value for ONC is for the catalysis of 6-FAM~dArUdGdA~6-TAMRA cleavage at room temperature in 0.020 M MES-NaOH buffer (pH 6.0) containing NaCl (0.010 M). / ^cValues of Kd (± SE) are for the complex with human RI at room temperature. The Kd value for RNase A is from Lee et al. (1989, Biochem. 28:225-230). The Kd value for G88R RNase A is from Lavis et al. (2007, Anal. Biochem. 79:6775-6782). The Kd value for ONC is an estimate from Wu et al. (1993, J. Biol. Chem. 268:10686-10693). / ^dValues of IC50 (± SE) are for incorporation of [methyl-^3H]thymidine into the DNA of K-562 cells. […]
First copying reader's note: The table body is printed very coarsely, so many digits are uncertain; the mark ^h in the (kcat/KM)cyto column has no footnote on the sheet, and the IC50 footnote is lettered d.
Where the first naming reader finds the target: footnote: Values of Kd (± SE) are for the complex with human RI at room temperature.

hRI = target: T2, hRI (Homo sapiens, UniProt P13489); conditions: value used as basis of the competition assay; Rutkoski et al., 2005; cited from earlier work
T2 sequence (P13489 1-461): T1 sequence (P13489 whole entry, looked up)

## N.N.[Cl][Pt][Cl] [cisplatin, reference compound]
[1]; 6 mg/kg weekly, compared with 60 kDa mPEG2 G89C RNase 1
  efficacy in reducing tumor volume: similar

## CC(=O)O[C@@]12CO[C@@H]1C[C@H](O)[C@@]1(C)C(=O)[C@H](O)C3=C(C)[C@@H](OC(=O)[C@H](O)[C@@H](NC(=O)OC(C)(C)C)c4ccccc4)C[C@@](O)([C@@H](OC(=O)c4ccccc4)[C@H]21)C3(C)C [docetaxel, reference compound]
[2]; 8 mg/kg weekly, compared to a control, FIG. 5
  tumor volume: decrease tumor volumes to similar levels

B1: 20 kDa mPEG2-G88C RNase A: G88C RNase A modified with 20 kDa-mPEG2 maleimide (branched) (conjugate, UniProt P61823 27-150, looked up, variant G88C)
Ribonuclease pancreatic: KETAAAKFERQHMDSSTSAASSSNYCNQMMKSRNLTKDRCKPVNTFVHESLADVQAVCSQKNVACKNGQTNCYQSYSTMSITDCRETCSSKYPNCAYKTTQANKHIIVACEGNPYVPVHFDASV
modifications: 20 kDa branched mPEG2 maleimide
[2]; 75 mg/kg, 1 time per week, intraperitoneal, FIG. 5
  tumor volume: reduce tumor volumes
Human RI
  Kd: 37 ± 2.4 nM

B2: fluorophore-labeled G88R variant of RNase A: fluorophore-labeled G88R variant of RNase A used as probe in the ribonuclease-inhibitor binding assay (conjugate, UniProt P61823 27-150, looked up, variant G88R)
Ribonuclease pancreatic: B1 Ribonuclease pancreatic with C88R
modifications: fluorophore label
hRI
  Kd: 1.4 nM

B3: 60 kDa mPEG2-G89C RNase 1: G89C RNase 1 modified with 60 kDa-mPEG2 maleimide (branched) (conjugate, UniProt P07998 29-156, looked up, variant G89C)
Ribonuclease pancreatic: KESRAKKFQRQHMDSDSSPSSSSTYCNQMMRRRNMTQGRCKPVNTFVHEPLVDVQNVCFQEKVTCKNGQGNCYKSNSSMHITDCRLTNCSRYPNCAYRTSPKERHIIVACEGSPYVPVHFDASVEDST
modifications: 60 kDa branched mPEG2 maleimide
[1]; 75 mg/kg weekly, intraperitoneal, versus control
  tumor volume: decreases tumor volume

B4: 2 kDa mPEG-G88C RNase A: G88C RNase A modified with 2 kDa-mPEG maleimide (conjugate, UniProt P61823 27-150, looked up, variant G88C)
Ribonuclease pancreatic: B1 Ribonuclease pancreatic
modifications: 2 kDa mPEG maleimide
notes: G88C RNase A modified with 2 kDa-mPEG maleimide
[2]; 15 mg/kg twice weekly, intraperitoneal, FIG. 4B
  toxicity of the treatment as reflected by average body weight: lack of toxicity
[2]; 15 mg/kg, 2 times per week, intraperitoneal, FIG. 4
  tumor volume: reduction in tumor volume over time
[2]; 15 mg/kg, 2 times per week, intraperitoneal, FIG. 4, listed as 2 kDa mPEG G88C RNase A
  tumor volume: reduce tumor volumes
